In PMC4018323:

Target: GOLPH3 (endogenous) (human (endogenous in HeLa)) (UniProt Q9H4A6)
Test: co-IP
Details: remark: other sources report otherwise

Sequence of GOLPH3 (endogenous) (human (endogenous in HeLa)) (Q9H4A6 whole entry): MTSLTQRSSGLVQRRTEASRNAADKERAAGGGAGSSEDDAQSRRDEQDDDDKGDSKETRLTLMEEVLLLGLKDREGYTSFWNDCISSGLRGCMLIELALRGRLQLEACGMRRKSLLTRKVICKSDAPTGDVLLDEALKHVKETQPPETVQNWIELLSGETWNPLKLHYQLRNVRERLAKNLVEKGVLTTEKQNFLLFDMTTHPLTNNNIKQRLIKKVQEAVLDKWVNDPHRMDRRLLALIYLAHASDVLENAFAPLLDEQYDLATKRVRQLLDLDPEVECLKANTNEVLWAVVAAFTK

fold increase in association after CPT versus DMSO control: 3.7 fold
Substance: MYO18A (endogenous), Q92614 1-2054
